From publication PMC2063392, “Antigenic determinants of prostate-specific antigen (PSA) and development of assays specific for different forms of PSA” (British Journal of Cancer, 1997)

Molecular target: T1, human alpha2-macroglobulin (a2M) (human, UniProt P01023 24-1474)
T1 construct: human alpha2-macroglobulin bought from Biodesign; source: bought: Biodesign, MD, USA
T1 sequence (looked up): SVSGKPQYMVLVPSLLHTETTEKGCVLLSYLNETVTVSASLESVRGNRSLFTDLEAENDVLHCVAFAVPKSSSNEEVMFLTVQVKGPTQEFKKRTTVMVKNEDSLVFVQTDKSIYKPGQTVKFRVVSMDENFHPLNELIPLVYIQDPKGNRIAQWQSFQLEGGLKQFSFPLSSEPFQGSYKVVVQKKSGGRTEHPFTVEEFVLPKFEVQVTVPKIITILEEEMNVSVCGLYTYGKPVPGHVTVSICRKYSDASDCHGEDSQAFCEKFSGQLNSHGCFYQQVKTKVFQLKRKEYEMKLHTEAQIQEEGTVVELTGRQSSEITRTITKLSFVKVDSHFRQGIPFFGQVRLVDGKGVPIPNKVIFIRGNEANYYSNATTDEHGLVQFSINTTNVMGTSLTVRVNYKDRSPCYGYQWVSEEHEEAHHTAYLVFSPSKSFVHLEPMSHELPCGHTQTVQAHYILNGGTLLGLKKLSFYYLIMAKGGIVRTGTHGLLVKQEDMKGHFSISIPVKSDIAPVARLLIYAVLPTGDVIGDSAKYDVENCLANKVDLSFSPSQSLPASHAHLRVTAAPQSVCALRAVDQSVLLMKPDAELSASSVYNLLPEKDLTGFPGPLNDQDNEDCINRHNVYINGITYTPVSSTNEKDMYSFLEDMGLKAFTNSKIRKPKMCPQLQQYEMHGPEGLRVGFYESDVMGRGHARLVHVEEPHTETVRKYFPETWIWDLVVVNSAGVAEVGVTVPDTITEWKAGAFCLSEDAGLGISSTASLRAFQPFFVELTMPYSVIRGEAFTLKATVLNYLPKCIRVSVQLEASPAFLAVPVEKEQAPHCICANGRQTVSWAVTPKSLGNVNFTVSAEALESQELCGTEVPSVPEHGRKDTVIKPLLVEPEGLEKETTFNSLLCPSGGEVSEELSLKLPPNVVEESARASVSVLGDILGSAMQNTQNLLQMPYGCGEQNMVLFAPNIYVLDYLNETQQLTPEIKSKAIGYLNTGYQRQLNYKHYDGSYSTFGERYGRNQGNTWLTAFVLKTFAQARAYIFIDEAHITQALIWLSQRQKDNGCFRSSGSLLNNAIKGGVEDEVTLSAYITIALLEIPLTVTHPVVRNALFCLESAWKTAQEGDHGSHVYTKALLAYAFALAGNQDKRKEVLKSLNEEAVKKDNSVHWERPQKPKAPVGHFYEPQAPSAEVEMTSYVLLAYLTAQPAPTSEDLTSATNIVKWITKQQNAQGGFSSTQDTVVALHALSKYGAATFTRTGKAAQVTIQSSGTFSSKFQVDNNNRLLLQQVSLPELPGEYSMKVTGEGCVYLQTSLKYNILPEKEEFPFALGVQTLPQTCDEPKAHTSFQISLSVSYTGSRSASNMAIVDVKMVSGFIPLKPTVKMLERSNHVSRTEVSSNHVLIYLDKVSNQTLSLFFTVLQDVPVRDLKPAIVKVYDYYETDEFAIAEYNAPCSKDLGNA
Experiment: loss of PSA immunoreactivity after incubation; human a2M incubated with twofold molar excess of PSA for 4 h at 37 C, used without further purification; PSA concentration determined before and after incubation
Conditions: both partners purified

B1: prostate-specific antigen (PSA) (enzyme)
chain: not shown
notes: human prostate-specific antigen (PSA), 32 to 33-kDa single-chain glycoprotein from seminal plasma; the preparation also holds 'nicked' (internally cleaved) forms; also called F-PSA; free PSA; source: purified from pooled seminal plasma from healthy volunteers (ion-exchange chromatography and gel chromatography); also used unpurified in seminal plasma
B1: binds.
